{
  "source": "paper doi:10.1101/2023.11.19.566349",
  "binders": {"B1": {"name": "tRNAala T-arm (structured_RNA)", "RNA": "UCGCUUUGCAUGCGA"}},
  "assay_in_all_cases": "EMSA",
  "key": {"[1]": {"target": "T1, Tric1 SAM Asp235Ala (Arabidopsis thaliana, UniProt Q9SCK3 191-261, D235A)", "T1 sequence": "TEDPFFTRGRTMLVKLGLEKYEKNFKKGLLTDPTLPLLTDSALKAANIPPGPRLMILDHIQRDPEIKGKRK"}, "[2]": {"target": "T2, Tric1 SAM Asp235Ala:Gly241Glu (Arabidopsis thaliana, UniProt Q9SCK3 191-261, D235A;G241E)", "T2 sequence": "T1 sequence with G51E"}, "[3]": {"target": "T3, Tric1 SAM Gly241Glu (Arabidopsis thaliana, UniProt Q9SCK3 191-261, G241E)", "T3 sequence": "T1 sequence with A45D, G51E"}, "[4]": {"target": "T4, Tric1 SAM domain WT (Arabidopsis thaliana, UniProt Q9SCK3 191-261)", "T4 sequence": "T1 sequence with A45D"}},
  "note": "Residue numbers refer to the chain shown, from its start.",
  "data": [
    {"binder": "B1", "values": [
      {"measurement": "binding result", "setting": "[1]", "value": "no binding"},
      {"measurement": "binding result", "setting": "[2]", "value": "no binding"},
      {"measurement": "binding result", "setting": "[3]", "value": "no binding"},
      {"measurement": "binding result", "setting": "[4]", "value": "binds"}
    ]}
  ]
}
